From PMC6498860 (Cell, 2019)

Target: histone H4 (Xenopus laevis, UniProt P62799 2-103)
Assay: cryo-EM structure

- binding result: binds
B1: Dot1L(2-416) (domain or fragment)
chain: GEKLELRLKSPVGAEPAVYPWPLPVYDKHHDAAHEIIETIRWVCEEIPDLKLAMENYVLIDYDTKSFESMQRLCDKYNRAIDSIHQLWKGTTQPMKLNTRPSTGLLRHILQQVYNHSVTDPEKLNNYEPFSPEVYGETSFDLVAQMIDEIKMTDDDLFVDLGSGVGQVVLQVAAATNCKHHYGVEKADIPAKYAETMDREFRKWMKWYGKKHAEYTLERGDFLSEEWRERIANTSVIFVNNFAFGPEVDHQLKERFANMKEGGRIVSSKPFAPLNFRINSRNLSDIGTIMRVVELSPLKGSVSWTGKPVSYYLHTIDRTILENYFSSLKNPKLREEQEAARRRQQRESKSNAATPTKGPEGKVAGPADAPMDSGAEEEKAGAATVKKPSPSKARKKKLNKKGRKMAGRKRGRPKK
